Measured values from the FLAb antibody collection.

B1: unnamed (protein)
chain 1: QVQLVESGGGVVQPGRSLRLSCAASGFTFSSYDMSWVRQAPGKGLEWVAKVSSGGGSTYYLDTVQGRFTISRDNSKNTLYLQMNSLRAEDTAVYYCARHLHGSFASWGQGTTVTVSS
chain 2: EIVLTQSPATLSLSPGERATLSCQASQSISNFLHWYQQRPGQAPRLLIRYRSQSISGIPARFSGSGSGTDFTLTISSLEPEDFAVYYCQQSGSWPLTFGGGTKVEIK
B2: unnamed (protein)
chain 1: QVQLVQSGAEVKRPGASVKVSCKASGYTFTNDIIHWVRQAPGQRLEWMGWINAGYGNTQYSQNFQDRVSITRDTSASTAYMELISLRSEDTAVYYCAREPLWFGESSPHDYYGMDVWGQGTTVTVSS
chain 2: AIQLTQSPSSLSASVGDRVTITCRASQGISSALAWYQQKPGKAPKLLIYDASSLESGVPSRFSGSGSGTDFTLTISSLQPEDFATYYCQQFNSYPLTFGGGTKVEIK
B3: unnamed (protein)
chain 1: EVQLVESGGGLVQPGGSLRLSCAASGFTLRSYSMNWVRQAPGKGLEWVSYISRSSHTIFYADSVKGRFTISRDNAKNSLYLQMDSLRDEDTAMYYCARVYSSGWHVSDYFDYWGQGILVTVSS
chain 2: AIQLTQSPSSLSASVGDRVTITCRASQGISSALAWYQQKPGKAPKLLIYDASSLESGVPSRFSGSGSGTDFTLTISSLQPEDFATYYCQQFNSYPLTFGGGTKVEIK
B4: unnamed (protein)
chain 1: EVQLQQPGSELVRPGASVKLSCKASGYTFTSYWMHWVKQRPGQGLEWIGNIYPGSRSTNYDEKFKSKATLTVDTSSSTAYMQLSSLTSEDSAVYYCTRNGDYYVSSGDAMDYWGQGTSVTVSS
chain 2: DIQMTQTTSSLSASLGDRVTISCRTSQDIGNYLNWYQQKPDGTVKLLIYYTSRLHSGVPSRFSGSGSGTDFSLTINNVEQEDVATYFCQHYNTVPPTFGGGTKLEIK
B5: unnamed (protein)
chain 1: EVQLVESGGGVVQPGKSLRLSCAASGLTFSSYAVHWVRQAPGKGLEWVTLISYDGANQYYADSVKGRFTISRDNSKNTVYLQMNSLRPEDTAVYYCAVPGPVFGIFPPWSYFDNWGQGILVTVSS
chain 2: EIVLTQSPATLSVSPGERATLSCRASQVISHNLAWYQQKPGQAPRLLIYGASTRASGIPARFSGSGSGTDYTLTITSLQSEDFAVYYCQHYSNWPPRLTFGGGTKVEIK
B6: unnamed (protein)
chain 1: QVQLVQPGAEVKKPGTSVKLSCKASGYTFTTYWMHWVRQAPGQGLEWIGEINPTNGHTNYNQKFQGRATLTVDKSTSTAYMELSSLRSEDTAVYYCARNYVGSIFDYWGQGTLLTVSS
chain 2: DIVMTQSPDSLAMSLGERVTLNCKASENVVSYVSWYQQKPGQSPKLLIYGASNRESGVPDRFSGSGSATDFTLTISSVQAEDVADYHCGQSYNYPYTFGQGTKLEIK
B7: unnamed (protein)
chain 1: QVELVESGGGLVQPGGSLRLSCAASGFTFSSYAMSWVRQAPGKGLEWVSAINASGTRTYYADSVKGRFTISRDNSKNTLYLQMNSLRAEDTAVYYCARGKGNTHKPYGYVRYFDVWGQGTLVTVSS
chain 2: DIVLTQSPATLSLSPGERATLSCRASQSVSSSYLAWYQQKPGQAPRLLIYGASSRATGVPARFSGSGSGTDFTLTISSLEPEDFATYYCLQIYNMPITFGQGTKVEIK
B8: unnamed (protein)
chain 1: EVQLVESGGGVVQPGRSLRLSCSASGFTFSGYGLSWVRQAPGKGLEWVAMISSGGSYTYYADSVKGRFAISRDNAKNTLFLQMDSLRPEDTGVYFCARHGDDPAWFAYWGQGTPVTVSS
chain 2: DIQLTQSPSSLSASVGDRVTITCSVSSSISSNNLHWYQQKPGKAPKPWIYGTSNLASGVPSRFSGSGSGTDYTFTISSLQPEDIATYYCQQWSSYPYMYTFGQGTKVEIK
B9: unnamed (protein)
chain 1: EVQLVESGGGLVQPGGSLRLSCAASGFFITNNYWGWVRQAPGKGLEWVGYISYSGSTSYNPSLKSRFTISRDTSKNTFYLQMNSLRAEDTAVYYCARTGSSGYFDFWGQGTLVTVSS
chain 2: DIQMTQSPSSLSASVGDRVTITCRASESVDDLLHWYQQKPGKAPKLLIKYASQSISGVPSRFSGSGSGTDFTLTISSLQPEDFATYYCQQGNSLPNTFGQGTKVEIK
B10: unnamed (protein)
chain 1: QVQLVQSGAELKKPGSSVKVSCKASGYIFTSSWINWVKQAPGQGLEWIGRIDPSDGEVHYNQDFKDKATLTVDKSTNTAYMELSSLRSEDTAVYYCARGFLPWFADWGQGTLVTVSS
chain 2: DIQMTQSPSTLSASVGDRVTITCKASENVDTYVSWYQQKPGKAPKLLIYGASNRYTGVPSRFSGSGSGTDFTLTISSLQPDDFATYYCGQSYNYPFTFGQGTKVEVK
B11: unnamed (protein)
chain 1: QVQLVQSGAEVKKPGSSVKVSCKASGYTFGNYWMQWVRQAPGQGLEWMGAIYEGTGKTVYIQKFADRVTITADKSTSTAYMELSSLRSEDTAVYYCARLSDYVSGFGYWGQGTTVTVSS
chain 2: DIQMTQSPSSLSASVGDRVTITCRASKDISKYLNWYQQKPGKAPKLLIYYTSGYHSGVPSRFSGSGSGTDFTLTISSLQPEDFATYYCQQGDALPPTFGGGTKVEIK
B12: unnamed (protein)
chain 1: EVQLVESGGGLVQPGGSLRLSCAASGFTFSNYWISWVRQAPGKGLEWVAEIRSESDASATHYAEAVKGRFTISRDNAKNSLYLQMNSLRAEDTAVYYCLAYFDYGLAIQNYWGQGTLVTVSS
chain 2: EIVLTQSPATLSLSPGERATLSCKASKRVTTYVSWYQQKPGQAPRLLIYGASNRYLGIPARFSGSGSGTDFTLTISSLEPEDFAVYYCSQSYNYPYTFGQGTKLEIK
B13: unnamed (protein)
chain 1: QVQLVESGGGLVQPGGSLRLSCAASGFTFRSYAMSWVRQAPGKGLEWVSAISGRGDNTYYADSVKGRFTISRDNSKNTLYLQMNSLRAEDTAVYYCAKMTSNAFAFDYWGQGTLVTVSS
chain 2: QSVLTQPPSVSGAPGQRVTISCTGSSSNIGAGYGVHWYQQLPGTAPKLLIYGNTNRPSGVPDRFSGFKSGTSASLAITGLQAEDEADYYCQSYDSSLSGWVFGGGTKLTVL
B14: unnamed (protein)
chain 1: QVQLQESGPGLVRPSQTLSLTCTVSGFTFTDFYMNWVRQPPGRGLEWIGFIRDKAKGYTTEYNPSVKGRVTMLVDTSKNQFSLRLSSVTAADTAVYYCAREGHTAAPFDYWGQGSLVTVSS
chain 2: DIQMTQSPSSLSASVGDRVTITCKASQNIDKYLNWYQQKPGKAPKLLIYNTNNLQTGVPSRFSGSGSGTDFTFTISSLQPEDIATYYCLQHISRPRTFGQGTKVEIK
B15: unnamed (protein)
chain 1: EVQLVESGGGLVKPGGSLRLSCAASGFPFSKLGMVWVRQAPGKGLEWVSTISSGGGYTYYPDSVKGRFTISRDNAKNSLYLQMNSLRAEDTAVYYCAREGISFQGGTYTYVMDYWGQGTLVTVSS
chain 2: DIVMTQSPLSLPVTPGEPASISCRSSKSLLHRNGITYSYWYLQKPGQSPQLLIYQLSNLASGVPDRFSGSGSGTDFTLKISRVEAEDVGVYYCYQNLELPLTFGQGTKVEIK
B16: unnamed (protein)
chain 1: QVQLVESGGGVVQPGRSLRLSCAASGFTFSSFGMHWVRQAPGKGLEWVAVISFDGSIKYSVDSVKGRFTISRDNSKNTLFLQMNSLRAEDTAVYYCARDRLNYYDSSGYYHYKYYGMAVWGQGTTVTVSS
chain 2: QSVLTQPPSVSAAPGQKVTISCSGSSSNIGNNYVSWYQQLPGTAPKLLIYDNNKRPSGIPDRFSGSKSGTSTTLGITGLQTGDEADYYCGTWDSRLSAVVFGGGTKLTVL
B17: unnamed (protein)
chain 1: EVQLVQSGAEVKKPGASVKVSCKASGYTLTSYGISWVRQAPGQGLEWMGWVSFYNGNTNYAQKLQGRGTMTTDPSTSTAYMELRSLRSDDTAVYYCARGYGMDVWGQGTTVTVSS
chain 2: ESALTQPASVSGSPGQSITISCTGTSSDVGGYNSVSWYQQHPGKAPKLMIYEVSNRPSGVSNRFSGSKSGNTASLTISGLQAEDEADYYCNSYTSTSMVFGGGTKLTVL
B18: unnamed (protein)
chain 1: QVQLQESGPGLVKPSETLSLTCAVSGGSISGGYGWGWIRQPPGKGLEWIGSFYSSSGNTYYNPSLKSQVTISTDTSKNQFSLKLNSMTAADTAVYYCVRDRLFSVVGMVYNNWFDVWGPGVLVTVSS
chain 2: ESALTQPPSVSGAPGQKVTISCTGSTSNIGGYDLHWYQQLPGTAPKLLIYDINKRPSGISDRFSGSKSGTAASLAITGLQTEDEADYYCQSYDSSLNAQVFGGGTRLTVL
B19: unnamed (protein)
chain 1: EVQLVQSGAEVKKPGSSVKVSCKASGYTITDSNIHWVRQAPGQSLEWIGYIYPYNGGTDYNQKFKNRATLTVDNPTNTAYMELSSLRSEDTAFYYCVNGNPWLAYWGQGTLVTVSS
chain 2: DIQLTQSPSTLSASVGDRVTITCRASESLDNYGIRFLTWFQQKPGKAPKLLMYAASNQGSGVPSRFSGSGSGTEFTLTISSLQPDDFATYYCQQTKEVPWSFGQGTKVEVK

Assay: patients with anti-drug antibodies; higher = more immunogenic

First: B1
Second: B2
The “patients with anti-drug antibodies” value of the first is lower: 0% for the first, 1.7% for the second.

First: B3
Second: B4
The “patients with anti-drug antibodies” value of the first is higher: 2.9% for the first, 0% for the second.

First: B5
Second: B6
The “patients with anti-drug antibodies” value of the first is higher: 1% for the first, 0% for the second.

Going from B7 to B8, the “patients with anti-drug antibodies” value rises from 0% to 8.7%.

First: B9
Second: B10
The “patients with anti-drug antibodies” value of the first is lower: 5% for the first, 7.8% for the second.

Compared with B11, B12 is lower in “patients with anti-drug antibodies” value: 8.7% for the first, 1.6% for the second.

Compared with B13, B14 is higher in “patients with anti-drug antibodies” value: 2.9% for the first, 5.1% for the second.

Going from B15 to B16, the “patients with anti-drug antibodies” value falls from 6.5% to 2.4%.

Going from B17 to B18, the “patients with anti-drug antibodies” value falls from 0.3% to 0%.

For B19, the “patients with anti-drug antibodies” value was 0%.
